Measured values reported in US20220251198A1 (Eli Lilly, published 2022).
Changes are numbered by the printed parent chain. Numbers in names are those of the source.

Tests used:
[1] = target: T1, human FcγRI extracellular domain (human, UniProt P12314 16-292); assay: SPR at 25 C, antibody captured on Protein A, FcγR ECD analyte
T1 construct: extracellular domain; also called CD64
Procedure: (§1) Biacore® T100 instrument and Biacore® 3000 (GE Healthcare, Piscataway, NJ), Biacore® reagents and Scrubber2 Biacore® Evaluation Software (Biologics 2008) are used for the SPR analysis of antibody binding. A CM5 chip (Biacore® P/N BR-1006-68) is prepared using the manufacturer's EDC/NHS amine coupling method (Biacore® P/N BR-1000-50). Briefly, the surfaces of all 4 FCs are activated by injecting a 1:1 mixture of EDC/NHS for 7 minutes at 10 μL/minute. Protein A (Calbiochem P/N 539202) is diluted to 100 μg/mL in 10 mM acetate, pH 4.5 buffer and immobilized for approximately 400 RU onto all 4 flow cells by 7 minute injection at a flow rate of 10 μL/minute. Un-reacted sites are blocked with a 7-minute injection of ethanolamine at 10 μL/minute. Injections of 2×10 μL of glycine pH 1.5 are used to remove any non-covalently associated protein.
Reference-subtracted data is collected as FC2-FC1, FC3-FC1, and FC4-FC1. The measurements are obtained at 25° C. The affinity (KD) is calculated using either steady state equilibrium analysis with the Scrubber 2 Biacore® Evaluation Software or a “1:1 (Langmuir) binding” model in BIA Evaluation.

[2] = target: T2, human FcγRIIb extracellular domain (human, UniProt P31994 43-217); assay: SPR at 25 C, antibody captured on Protein A, FcγR ECD analyte, steady state
T2 construct: extracellular domain; also called CD32b
T2 sequence (looked up): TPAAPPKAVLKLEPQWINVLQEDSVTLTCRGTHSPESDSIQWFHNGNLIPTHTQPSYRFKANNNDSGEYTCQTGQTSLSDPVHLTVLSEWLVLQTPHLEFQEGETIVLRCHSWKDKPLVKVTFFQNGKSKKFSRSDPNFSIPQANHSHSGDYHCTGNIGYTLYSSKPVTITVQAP
Procedure: as §1
(§2) For FcγRIIa, FcγRIIb, and FcγRIIIa binding, antibodies are diluted to […] in running buffer, and approximately 500 RU of each variant is captured in flow cells 2 through 4 (RUcaptured). FC1 is the reference flow cell. Fcγ receptor ECDs are diluted to 10 μM in running buffer and then 2 fold serially diluted in running buffer to 39 nM. Duplicate injections of each concentration are injected over all FCs at 40 μL/minute for 60 seconds followed by a 120 second dissociation phase. Regeneration is performed by injecting 15 μL of 10 mM glycine pH 1.5 at 30 μL/min over all FCs.
(§3) Reference-subtracted data is collected as FC2-FC1, FC3-FC1, and FC4-FC1. The measurements are obtained at 25° C. The affinity (KD) is calculated using the steady state equilibrium analysis with the Scrubber 2 Biacore® Evaluation Software.

[3] = target: T3, human FcγRIIA_131H extracellular domain (human, UniProt P12318 34-217); assay: as above
T3 construct: extracellular domain; also called CD32a
T3 sequence (looked up): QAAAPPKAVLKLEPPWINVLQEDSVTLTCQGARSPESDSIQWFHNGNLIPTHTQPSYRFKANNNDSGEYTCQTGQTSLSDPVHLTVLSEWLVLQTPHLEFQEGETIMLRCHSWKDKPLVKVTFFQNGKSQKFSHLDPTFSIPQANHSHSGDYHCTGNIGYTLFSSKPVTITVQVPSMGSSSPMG
Procedure: as §1, §2, §3

[4] = target: T4, human FcγRIIA_131R extracellular domain (human, UniProt P12318 34-217); assay: as above
T4 construct: extracellular domain; also called CD32a
T4 sequence (looked up): T3 sequence (looked up) with H134R
Procedure: as §1, §2, §3

[5] = target: T5, human FcγRIIIA_158V extracellular domain (human, UniProt P08637 17-208); assay: as above
T5 construct: extracellular domain; Allotype with Val at 158 (numbering as in the label); also called CD16a
T5 sequence (P08637 17-208 F176V): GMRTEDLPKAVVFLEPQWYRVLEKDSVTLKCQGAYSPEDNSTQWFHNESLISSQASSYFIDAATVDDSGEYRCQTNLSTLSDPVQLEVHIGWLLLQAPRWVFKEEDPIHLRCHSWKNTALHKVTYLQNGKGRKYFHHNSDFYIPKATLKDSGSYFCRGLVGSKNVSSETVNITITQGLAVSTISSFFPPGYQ
Procedure: as §1, §2, §3

[6] = target: T6, human CD200R expressed on cells (human, UniProt Q8TD46 25-348); assay: cell-based or functional assay
T6 chain: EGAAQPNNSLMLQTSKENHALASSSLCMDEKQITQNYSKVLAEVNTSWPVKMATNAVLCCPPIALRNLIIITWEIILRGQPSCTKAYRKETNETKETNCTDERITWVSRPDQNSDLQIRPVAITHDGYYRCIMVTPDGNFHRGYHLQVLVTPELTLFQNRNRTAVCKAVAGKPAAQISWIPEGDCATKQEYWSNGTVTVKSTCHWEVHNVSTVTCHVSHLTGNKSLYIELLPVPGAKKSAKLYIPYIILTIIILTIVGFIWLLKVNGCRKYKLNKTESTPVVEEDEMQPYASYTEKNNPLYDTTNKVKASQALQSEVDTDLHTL

[7] = target: T7, human CD200R (purified soluble receptor, SPR analyte) (human, UniProt Q8TD46 29-265, limits assumed); assay: SPR at 37 C, antibody captured on Protein A, receptor analyte, 1:1 model; n=3
T7 construct: Purified by IMAC and size exclusion chromatography; also called hCD200R; human CD200 receptor
T7 chain: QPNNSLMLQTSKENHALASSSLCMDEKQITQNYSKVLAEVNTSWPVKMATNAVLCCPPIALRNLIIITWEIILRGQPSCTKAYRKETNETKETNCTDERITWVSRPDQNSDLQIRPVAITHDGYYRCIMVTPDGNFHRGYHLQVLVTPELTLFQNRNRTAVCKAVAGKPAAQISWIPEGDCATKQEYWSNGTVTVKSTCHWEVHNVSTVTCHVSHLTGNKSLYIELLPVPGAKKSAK

[8] = target: T8, cynomolgus monkey CD200R (purified soluble receptor, SPR analyte) (cynomolgus monkey, UniProt Q8TD46 25-265 (human entry)); assay: as above
T8 construct: Purified by IMAC and size exclusion chromatography; also called cyno CD200R
T8 chain: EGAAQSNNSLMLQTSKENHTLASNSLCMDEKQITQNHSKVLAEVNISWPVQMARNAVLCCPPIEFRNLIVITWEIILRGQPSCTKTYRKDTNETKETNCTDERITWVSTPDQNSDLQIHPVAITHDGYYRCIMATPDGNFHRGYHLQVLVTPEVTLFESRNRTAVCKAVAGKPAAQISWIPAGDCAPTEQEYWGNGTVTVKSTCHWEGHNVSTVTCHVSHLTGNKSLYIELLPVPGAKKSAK

[9] = target: T9, human FcγRIIIA_158F extracellular domain (human, UniProt P08637 17-208); assay: SPR at 25 C, antibody captured on Protein A, FcγR ECD analyte, steady state
T9 construct: extracellular domain; Allotype with Phe at 158 (numbering as in the label); also called CD16a
T9 sequence (P08637 17-208): as the sequence (P08637 17-208 F176V) above, with V160F counted along it
Procedure: as §1, §2, §3

T1 sequence (P12314 16-292): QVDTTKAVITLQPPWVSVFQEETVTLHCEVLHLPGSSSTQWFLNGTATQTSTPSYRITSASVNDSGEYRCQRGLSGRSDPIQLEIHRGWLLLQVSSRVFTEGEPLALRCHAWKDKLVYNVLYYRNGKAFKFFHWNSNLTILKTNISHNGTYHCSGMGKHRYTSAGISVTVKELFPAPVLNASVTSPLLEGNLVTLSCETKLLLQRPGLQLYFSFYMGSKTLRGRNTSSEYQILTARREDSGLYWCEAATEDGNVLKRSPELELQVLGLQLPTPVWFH

B1: Antibody I-4P (antibody, human IgG4 S228P, kappa)
heavy: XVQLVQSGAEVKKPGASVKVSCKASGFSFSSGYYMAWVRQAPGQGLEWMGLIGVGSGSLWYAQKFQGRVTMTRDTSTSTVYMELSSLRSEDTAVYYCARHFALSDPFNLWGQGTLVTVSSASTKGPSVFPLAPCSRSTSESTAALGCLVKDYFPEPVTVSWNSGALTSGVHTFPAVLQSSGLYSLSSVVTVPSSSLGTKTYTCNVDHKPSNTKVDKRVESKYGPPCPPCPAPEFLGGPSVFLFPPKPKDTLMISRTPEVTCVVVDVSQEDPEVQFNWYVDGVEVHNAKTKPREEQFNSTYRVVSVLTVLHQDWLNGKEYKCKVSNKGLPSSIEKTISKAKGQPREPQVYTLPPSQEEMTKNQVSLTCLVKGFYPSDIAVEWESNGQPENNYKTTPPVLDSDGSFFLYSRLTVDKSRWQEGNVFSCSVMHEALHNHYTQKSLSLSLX
light: EIVLTQSPDFQSVTPKEKVTITCQASESIDSYLLWYQQKPDQSPKLLIKQASTLASGVPSRFSGSGSGTDFTLTINSLEAEDAATYYCQNYYDISSNDFGGGTKVEIKRTVAAPSVFIFPPSDEQLKSGTASVVCLLNNFYPREAKVQWKVDNALQSGNSQESVTEQDSKDSTYSLSSTLTLSKADYEKHKVYACEVTHQGLSSPVTKSFNRGEC
modifications: Xaa at position 1 is either glutamine or pyroglutamic acid; Xaa at position 446 is either glycine or absent
notes: Humanized IgG4P (S228P), kappa; also called IgG4SP; Antibody I-4P-AF647 (AF647-labelled form used as stain)
Kd [1]: 0.369 nM
Kd [2]: 2200 nM
Kd [3]: 3900 nM
Kd [4]: 1700 nM
Kd [5]: 4300 nM
IC50 of inhibition of IC-stimulated IL-8 release, human CD200R-expressing U937 cells [6]: 0.07 µg/mL
IC50 of inhibition of immune-complex induced IL-8 secretion, U937 cells expressing human CD200R (average of 3 experiments) [6]: 0.2 µg/mL
Kd [7]: 5.6 nM
Kd [8]: 2.3 nM

B2: Antibody I-IgG1 (antibody)
heavy: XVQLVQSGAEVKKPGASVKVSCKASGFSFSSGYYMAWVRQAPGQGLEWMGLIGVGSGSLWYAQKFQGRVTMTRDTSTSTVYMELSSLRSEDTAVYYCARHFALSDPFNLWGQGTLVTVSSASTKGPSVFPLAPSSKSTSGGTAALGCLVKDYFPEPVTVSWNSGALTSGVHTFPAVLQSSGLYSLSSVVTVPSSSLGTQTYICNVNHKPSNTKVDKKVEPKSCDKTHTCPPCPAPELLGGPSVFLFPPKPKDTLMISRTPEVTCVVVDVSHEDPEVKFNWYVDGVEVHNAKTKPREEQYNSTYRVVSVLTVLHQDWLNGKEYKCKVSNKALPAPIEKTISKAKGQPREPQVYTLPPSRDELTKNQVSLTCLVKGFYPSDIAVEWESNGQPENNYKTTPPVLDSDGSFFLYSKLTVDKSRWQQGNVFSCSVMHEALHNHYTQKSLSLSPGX
light: B1 light
modifications: Xaa at position 1 is either glutamine or pyroglutamic acid; Xaa at position 450 is either lysine or absent
notes: Same HCVR, LCVR and LC as Antibody I-4P; IgG1 heavy chain
Kd [1]: 0.0489 nM
Kd [2]: 2800 nM
Kd [3]: 500 nM
Kd [4]: 600 nM
Kd [5]: 200 nM
Kd [9]: 900 nM
